In the test the target is microtubules (tubulin purified from bovine brain) (bovine) (UniProt Q6B856). The test can be described thus: co-sedimentation.
microtubules (tubulin purified from bovine brain) (bovine), sequence (Q6B856 whole entry, looked up): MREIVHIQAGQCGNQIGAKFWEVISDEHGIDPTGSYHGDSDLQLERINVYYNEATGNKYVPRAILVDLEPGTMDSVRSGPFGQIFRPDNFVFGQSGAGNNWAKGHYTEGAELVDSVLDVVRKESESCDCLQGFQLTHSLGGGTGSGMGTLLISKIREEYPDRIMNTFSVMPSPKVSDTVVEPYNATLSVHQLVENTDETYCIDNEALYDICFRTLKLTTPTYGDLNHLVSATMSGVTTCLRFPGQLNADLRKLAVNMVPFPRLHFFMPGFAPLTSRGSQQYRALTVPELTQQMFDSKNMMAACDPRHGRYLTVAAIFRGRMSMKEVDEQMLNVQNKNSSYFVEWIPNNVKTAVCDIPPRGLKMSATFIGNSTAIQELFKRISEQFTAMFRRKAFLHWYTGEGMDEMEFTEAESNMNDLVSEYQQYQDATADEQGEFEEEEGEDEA

Take “native kinesin (kinesin-1, conventional kinesin) purified from bovine brain (complex)”: the active fraction by microtubule pulldown (no CK2) is 20% and the percent of motor bound to microtubules (after CK2, 3:1 kinase:motor) came out at 80%.

For the origin of these results see paper PMC3574636.
